Earlier results on 1 substance are cited in publication PMC3877032.

The target in one series is PLD1 (Homo sapiens) (UniProt Q13393).
The next series concerns the target ERK2 (Homo sapiens) (UniProt P28482).
UniProt P28482, sequence (P28482 2-360): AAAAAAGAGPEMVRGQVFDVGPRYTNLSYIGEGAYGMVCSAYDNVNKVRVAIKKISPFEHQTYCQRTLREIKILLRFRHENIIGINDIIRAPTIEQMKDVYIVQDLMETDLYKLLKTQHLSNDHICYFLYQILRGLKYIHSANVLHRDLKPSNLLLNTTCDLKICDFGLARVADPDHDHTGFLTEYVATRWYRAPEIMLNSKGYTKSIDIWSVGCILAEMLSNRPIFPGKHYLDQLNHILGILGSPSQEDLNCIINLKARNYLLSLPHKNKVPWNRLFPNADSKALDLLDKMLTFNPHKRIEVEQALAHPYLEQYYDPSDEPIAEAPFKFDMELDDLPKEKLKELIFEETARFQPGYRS

UniProt Q13393, sequence (Q13393 whole entry): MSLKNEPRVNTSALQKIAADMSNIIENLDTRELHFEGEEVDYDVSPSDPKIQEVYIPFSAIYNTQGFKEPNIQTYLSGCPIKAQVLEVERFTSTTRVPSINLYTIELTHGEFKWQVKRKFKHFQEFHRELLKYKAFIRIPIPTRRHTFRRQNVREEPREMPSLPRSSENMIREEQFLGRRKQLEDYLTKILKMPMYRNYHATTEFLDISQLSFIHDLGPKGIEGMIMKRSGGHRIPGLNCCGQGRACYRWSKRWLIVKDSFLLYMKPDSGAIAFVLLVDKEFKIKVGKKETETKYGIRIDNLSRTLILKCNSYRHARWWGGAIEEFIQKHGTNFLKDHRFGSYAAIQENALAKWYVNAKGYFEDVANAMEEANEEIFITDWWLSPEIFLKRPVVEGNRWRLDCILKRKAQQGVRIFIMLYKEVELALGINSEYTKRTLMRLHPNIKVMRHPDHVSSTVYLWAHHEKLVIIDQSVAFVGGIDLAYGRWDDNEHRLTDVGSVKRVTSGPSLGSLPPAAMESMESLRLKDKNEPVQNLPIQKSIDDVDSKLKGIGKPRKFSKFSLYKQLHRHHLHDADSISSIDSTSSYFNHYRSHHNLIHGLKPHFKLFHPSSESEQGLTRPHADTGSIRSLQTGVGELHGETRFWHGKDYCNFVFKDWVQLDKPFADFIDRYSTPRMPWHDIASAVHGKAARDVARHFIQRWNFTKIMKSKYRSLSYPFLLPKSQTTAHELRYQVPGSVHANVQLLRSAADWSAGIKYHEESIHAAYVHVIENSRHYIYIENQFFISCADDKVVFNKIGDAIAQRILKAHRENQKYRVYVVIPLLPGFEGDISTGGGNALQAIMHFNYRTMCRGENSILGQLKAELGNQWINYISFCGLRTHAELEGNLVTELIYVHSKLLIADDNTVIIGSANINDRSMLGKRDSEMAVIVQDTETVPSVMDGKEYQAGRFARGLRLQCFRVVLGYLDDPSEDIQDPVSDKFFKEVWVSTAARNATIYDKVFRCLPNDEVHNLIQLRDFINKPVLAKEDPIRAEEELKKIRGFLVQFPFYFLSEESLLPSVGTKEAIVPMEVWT

Broadly, the Kd is the free concentration of one partner at which half of the binding sites on the other are occupied at equilibrium, for simple one-to-one binding. For the substance PEA-15 (from UniProt Q15121), the values for the dissociation constant (Kd) in the series with PLD1 (Homo sapiens) and with ERK2 (Homo sapiens) were 370 nM and 133 nM, respectively.
